Experimental data taken from patent US20190153406.

Columns and labels:
[1] = system: IRS1 (insulin receptor substrate-1), species not stated

| Substance | MG53-mediated substrate degradation, Western Blot, HEK293T co-expression (FIG. 17) [1] | MG53-mediated substrate degradation, Western Blot, HEK293T co-expression (FIG. 16) [1] | degradation of IRβ, Western Blot, HEK293T co-expression (FIG. 16B) (insulin receptor IR) | degradation of precursor protein of IRβ, HEK293T co-expression (insulin receptor IR) |
| --- | --- | --- | --- | --- |
| human MG53-D-RING truncated mutant | human or mouse MG53-D-RING truncated mutant can hardly mediate IRS1 degradation |  |  |  |
| mouse MG53-D-RING truncated mutant |  | human or mouse MG53-D-RING truncated mutant can hardly mediate IRS1 degradation | mouse MG53-D-RING truncated mutant and mouse MG53 S255A mutant can hardly mediate IRβ degradation | mouse MG53-D-RING truncated mutant and mouse MG53 S255A mutant almost completely inhibited MG53-mediated degradation |
